# B1: recombinant KDM2A fragment (amino acids 785–817) fused with GST (domain or fragment, UniProt Q9Y2K7 785-817, looked up)
# chain: ELSEVEKAKIRGSYLTVTLQRPTKELHGTSIVP
# notes: also called GST-KDM2A fragment; source: E. coli DH5α (pGEX-3X), isolated on glutathione-Sepharose, dialysed
# Experiments:
# [1] = biological target: T1, Recombinant His-tagged HP1γ (human, UniProt Q13185 1-183); experiment: pull-down; His-tagged HP1γ forms incubated with GST-KDM2A fragments in 300 mM NaCl, 50 mM Na-phosphate pH 7.0, 4 °C 1 h; collected on TALON resin (1% NP40 washes); SDS-PAGE; conditions: both partners purified
# T1 construct: HP1γ, human; the cDNA used encodes 183 amino acids; pCold I vector; also called His-HP1γ; His-tag HP1γ; source: E. coli DH5α (pCold I), isolated with TALON His-tag resin, dialysed
# [2] = biological target: T2, Recombinant His-tagged HP1γ (CSD) (human, UniProt Q13185 110-183); experiment: as above; conditions: both partners purified
# T2 construct: HP1γ, human, chromoshadow domain construct, amino acids 110-183; Limits 110-183 are those printed for the HP1γ (CSD) cDNA; the His-tag plasmids are described only as 'His-tag HP1γ and its mutants'; also called CSD of HP1γ; His-HP1γ mutant; source: E. coli DH5α (pCold I), isolated with TALON His-tag resin, dialysed
# T2 sequence (Q13185 110-183): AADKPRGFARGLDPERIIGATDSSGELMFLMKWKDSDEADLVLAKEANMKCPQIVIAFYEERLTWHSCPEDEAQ
# T1 sequence (Q13185 whole entry, the tested form may be a part): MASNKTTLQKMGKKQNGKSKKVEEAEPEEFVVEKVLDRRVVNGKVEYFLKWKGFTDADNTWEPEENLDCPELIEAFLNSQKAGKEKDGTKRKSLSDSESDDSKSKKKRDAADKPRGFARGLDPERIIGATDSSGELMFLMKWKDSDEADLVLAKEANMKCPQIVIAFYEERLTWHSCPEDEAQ
binder,measurement,setting,value
B1,binding result,[1],binds
same,binding result,[2],binds

# Reference: paper PMC6677663, “KDM2A-dependent reduction of rRNA transcription on glucose starvation requires HP1 in cells, including triple-negative breast cancer cells” (Oncotarget, 2019)
